# Test results from article PMC9671113.
# Assays:
# [1] = molecular target: trimeric pre-fusion SARS-CoV-2 spike glycoprotein (pre-S) (SARS-CoV-2 (Wuhan-Hu-1 strain) | Phage T4) (UniProt P0DTC2); assay: negative-stain electron microscopy (called Cryo-EM by the paper)
# [2] = molecular target: trimeric pre-fusion SARS-CoV-2 spike glycoprotein (pre-S) (SARS-CoV-2 (Wuhan-Hu-1 strain) | Phage T4) (UniProt P0DTC2); assay: SEC
substance,measurement,setting,value
trimeric pre-fusion SARS-CoV-2 spike glycoprotein (pre-S) (from UniProt P0DTC2 14-1201) (domain or fragment),stoichiometry N,[1],3
same,stoichiometry N,[2],3
